T1: C-terminally truncated Sso7c4 (Sulfolobus solfataricus P2, UniProt A0A0E3K9N8 1-48, del49-54)
T1 chain: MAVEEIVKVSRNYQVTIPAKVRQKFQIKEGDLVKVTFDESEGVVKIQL


How the values were obtained:
[1] = target: T1, C-terminally truncated Sso7c4; assay: fluorescence polarization; 20 mM Tris-Cl pH 7.5, no added salt, 25 C; FP with 100 nM FAM-DNA, 1 h at room temperature; details: protein: recombinant; chain copies: 2; label: 5'-FAM; blunt, self-complementary
Sso7c4 wild-type [2] = target: T2, Sso7c4 wild-type (Sulfolobus solfataricus P2, UniProt A0A0E3K9N8 1-54); assay: as above; details: protein: recombinant; chain copies: 2; label: 5'-FAM; blunt, self-complementary
Target sequence in this assay (A0A0E3K9N8 entry or part of it): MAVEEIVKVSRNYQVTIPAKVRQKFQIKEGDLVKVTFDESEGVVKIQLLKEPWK

Sso7c4 wild-type [3] = target: T2, Sso7c4 wild-type; assay: tryptophan fluorescence quenching; 20 mM Tris-Cl pH 7.5, no added salt, 25 C; FP with 100 nM FAM-DNA, 1 h at room temperature; details: protein: recombinant; chain copies: 2; blunt, self-complementary
Target sequence in this assay (A0A0E3K9N8 entry or part of it): as above

Sso7c4-R22A = Sso7c4-R22A (Sulfolobus solfataricus P2, UniProt A0A0E3K9N8 1-54, R22A); assay: fluorescence polarization; 20 mM Tris-Cl pH 7.5, no added salt, 25 C; FP with 100 nM FAM-DNA, 1 h at room temperature; details: protein: recombinant; chain copies: 2; label: 5'-FAM; blunt, self-complementary
Sso7c4-R22A, sequence (A0A0E3K9N8 entry or part of it R22A | R22A R22A): as the sequence (A0A0E3K9N8 entry or part of it) above, with R22A counted along it

Sso7c4-R11A = Sso7c4-R11A (Sulfolobus solfataricus P2, UniProt A0A0E3K9N8 1-54, R11A); assay: as above; details: protein: recombinant; chain copies: 2; label: 5'-FAM; blunt, self-complementary
Sso7c4-R11A, sequence (A0A0E3K9N8 entry or part of it R11A | R11A R11A): as the sequence (A0A0E3K9N8 entry or part of it) above, with R11A counted along it

[4] = target: T1, C-terminally truncated Sso7c4; assay: bulk FRET; saturating protein; DNA straightened; 20 mM Tris-Cl pH 7.5, no added salt, 25 C; FP with 100 nM FAM-DNA, 1 h at room temperature; details: protein: recombinant; chain copies: 2; label: Cy3 and Cy5 on the 5' ends; blunt
Sso7c4 wild-type [5] = target: T2, Sso7c4 wild-type; assay: bulk FRET; saturating protein; DNA bent; 20 mM Tris-Cl pH 7.5, no added salt, 25 C; FP with 100 nM FAM-DNA, 1 h at room temperature; details: protein: recombinant; chain copies: 2; label: Cy3 and Cy5 on the 5' ends; blunt
[6] = target: T1, C-terminally truncated Sso7c4; assay: bulk FRET; saturating protein; slight change; 20 mM Tris-Cl pH 7.5, no added salt, 25 C; FP with 100 nM FAM-DNA, 1 h at room temperature; details: protein: recombinant; chain copies: 2; label: Cy3 and Cy5 on the 5' ends; blunt

| Binder | Kd [1] | Kd (Sso7c4 wild-type [2]) | binding result (Sso7c4 wild-type [5]) | further results |
| --- | --- | --- | --- | --- |
| 5'-FAM-10-bp DNA (dsDNA) DNA 1: CCTACGTAGG DNA 2: CCTACGTAGG | 11 ± 0.41 µM | 3.12 ± 0.16 µM |  |  |
| 20-bp DNA unlabeled (dsDNA) DNA 1: CCAACACTGGCCAGTGTTGG DNA 2: CCAACACTGGCCAGTGTTGG |  |  |  | Kd (Sso7c4 wild-type [3]): 22.8 µM |
| 5'-FAM-20-bp DNA (dsDNA) DNA 1: CCAACACTGGCCAGTGTTGG DNA 2: CCAACACTGGCCAGTGTTGG | 12 ± 0.53 µM | 2.73 ± 0.18 µM |  | Kd (Sso7c4-R22A): 5.07 ± 0.15 µM; Kd (Sso7c4-R11A): 3.19 ± 0.12 µM |
| 30 bp FRET DNA (dsDNA) DNA 1: CGTGCTCTGCGATCTCTTCGATAACCATAG DNA 2: CTATGGTTATCGAAGAGATCGCAGAGCACG |  |  | binds | binding result [4]: binds |
| 24 bp FRET DNA (dsDNA) DNA 1: CGTGCTCTGCGATCTCTTCGATAA DNA 2: TTATCGAAGAGATCGCAGAGCACG |  |  | binds | binding result [6]: binds |
| 5'-FAM-8-bp DNA (dsDNA) DNA 1: CGCTAGCG DNA 2: CGCTAGCG | 15.9 ± 0.53 µM | 14.2 ± 0.26 µM |  |  |

Reference: PMC5222340, “The Arginine Pairs and C-Termini of the Sso7c4 from Sulfolobus solfataricus Participate in Binding and Bending DNA”
